Laboratory results from US20090181035A1 (Genentech, published 2009).

T1: PlxD1-Fc (human PlexinD1 ECD Met1 to Ala1271 fused to the Fc portion of human IgG1) (human, UniProt Q9Y4D7 47-1271)
T1 construct: range 1-1271; also called PlexinD1 immunoadhesin; soluble PlexinD1; not shown: Fc portion of human IgG1
T1 sequence (looked up): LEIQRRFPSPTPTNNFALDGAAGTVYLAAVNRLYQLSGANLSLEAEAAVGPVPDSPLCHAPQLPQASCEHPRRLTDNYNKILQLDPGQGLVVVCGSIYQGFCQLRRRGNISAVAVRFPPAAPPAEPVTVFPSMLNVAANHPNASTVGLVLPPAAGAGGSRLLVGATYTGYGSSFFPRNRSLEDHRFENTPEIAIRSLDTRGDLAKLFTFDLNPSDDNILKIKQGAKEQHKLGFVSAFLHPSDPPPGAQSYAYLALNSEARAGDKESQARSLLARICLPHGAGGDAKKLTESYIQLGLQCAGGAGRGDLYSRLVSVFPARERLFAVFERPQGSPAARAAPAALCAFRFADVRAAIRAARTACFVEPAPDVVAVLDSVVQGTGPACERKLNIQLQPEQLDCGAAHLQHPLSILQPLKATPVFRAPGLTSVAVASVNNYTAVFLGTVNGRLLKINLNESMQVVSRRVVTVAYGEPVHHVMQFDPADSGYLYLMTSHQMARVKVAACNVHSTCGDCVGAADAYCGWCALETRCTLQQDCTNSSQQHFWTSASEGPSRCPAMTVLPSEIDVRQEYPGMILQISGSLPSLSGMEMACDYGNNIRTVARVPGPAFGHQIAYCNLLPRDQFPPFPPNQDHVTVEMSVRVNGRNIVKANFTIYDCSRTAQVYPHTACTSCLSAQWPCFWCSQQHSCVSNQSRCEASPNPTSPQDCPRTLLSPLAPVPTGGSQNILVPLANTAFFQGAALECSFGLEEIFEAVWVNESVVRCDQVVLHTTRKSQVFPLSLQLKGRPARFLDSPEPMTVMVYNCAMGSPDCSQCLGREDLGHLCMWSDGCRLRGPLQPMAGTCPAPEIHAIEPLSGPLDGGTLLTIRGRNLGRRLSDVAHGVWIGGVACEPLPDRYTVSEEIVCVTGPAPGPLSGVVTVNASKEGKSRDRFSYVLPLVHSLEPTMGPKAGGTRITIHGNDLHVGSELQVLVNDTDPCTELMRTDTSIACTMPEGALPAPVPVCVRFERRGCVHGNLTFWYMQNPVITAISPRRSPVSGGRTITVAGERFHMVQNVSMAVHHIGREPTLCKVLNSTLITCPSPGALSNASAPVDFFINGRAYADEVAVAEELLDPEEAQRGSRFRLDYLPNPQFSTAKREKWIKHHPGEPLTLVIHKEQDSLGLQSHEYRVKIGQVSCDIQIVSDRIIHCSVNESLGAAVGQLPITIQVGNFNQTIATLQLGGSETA


Experiments:
[1] = target: T2, human PlexinD1 expressed on human umbilical vein endothelial cells (HUVECs) (human, UniProt Q9Y4D7 47-1925); assay: radioligand cell binding assay on HUVECs; radioligand binding on HUVECs (endogenous human PlexinD1); Fc fusion, not His
T2 construct: whole, on cells; Endogenous receptor on primary cells; also called native PlexinD1

[2] = target: T3, murine PlexinD1 expressed on mouse microvascular endothelial (MS1) cells (mouse, UniProt Q3UH93 49-1925); assay: FACS on MS1 cells
T3 construct: whole, on cells; Endogenous receptor on a cell line

[3] = target: T1, PlxD1-Fc (human PlexinD1 ECD Met1 to …); assay: SPR (Biacore 3000, 25 C); PlxD1-Fc amine-coupled on CM5 chip, Sema3E^SD-His as analyte; one-to-one model; SPR, 25 C; PlxD1-Fc on the chip, His-tagged Sema3E^SD as analyte
Protocol: Binding experiments were performed by SPR measurements on a Biacore 3000 instrument (Biacore Inc.) at 25° C. PlxD1-Fc constructed as described in Example 1 was immobilized at high surface density (˜10,000 RU) on an activated CM5 chip using standard amine coupling procedures as described by the manufacturer. PlxD1-Fc was injected at a concentration of 10 μg/ml in 20 mM sodium acetate, pH 4.5 and at a flow rate of 5 μl/min until desired surface densities, measured in response units (RU), were reached. Unreacted groups were blocked by injecting 1 M ethanolamine. To perform binding assays, different concentrations of Sema3E^SD-His were injected in 10 mM HEPES pH 7.4, 150 mM NaCl, 0.005% v/v Surfactant P20, at a flow rate of 5 μl/min. Blank surfaces were used for background corrections. Injections of 10 mM glycine, pH 3.0 at 100 μl/min for 1 min were used to regenerate surfaces between two binding experiments. Kinetic analysis was performed with binding sensorgrams of different analyte concentrations using the BIAevaluation Software (Biacore Inc.). An one-to-one binding model was used to fit the experimental data for association and dissociation reactions. Dissociation constants were calculated from the on and off rates. […] Radioligand cell binding assays were performed and the dissociation constant for Sema3E^SD-Fc binding to HUVECs was calculated to 4 nM.

Kd [1] [nM]	binding result [2]	Kd [3] [nM]	Binder
4	binds	–	Sema3E^SD-Fc (human Semaphorin 3E Met1 to Ala554 of SEQ ID NO: 1 with the Fc portion of human IgG1 as C-terminal fusion partner) (Fc fusion, The construct as cloned starts at Met1; also called Sema3E^SD-Fc immunoadhesin; not shown: Fc portion of human IgG1) ADTTHPRLRLSHKELLNLNRTSIFHSPFGFLDLHTMLLDEYQERLFVGGRDLVYSLSLERISDGYKEIHWPSTALKMEECIMKGKDAGECANYVRVLHHYNRTHLLTCGTGAFDPVCAFIRVGYHLEDPLFHLESPRSERGRGRCPFDPSSSFISTLIGSELFAGLYSDYWSRDAAIFRSMGRLAHIRTEHDDERLLKEPKFVGSYMIPDNEDRDDNKVYFFFTEKALEAENNAHAIYTRVGRLCVNDVGGQRILVNKWSTFLKARLVCSVPGMNGIDTYFDELEDVFLLPTRDHKNPVIFGLFNTTSNIFRGHAICVYHMSSIRAAFNGPYAHKEGPEYHWSVYEGKVPYPRPGSCASKVNGGRYGTTKDYPDDAIRFARSHPLMYQAIKPAHKKPILVKTDGKYNLKQIAVDRVEAEDGQYDVLFIGTDNGIVLKVITIYNQEMESMEEVILEELQIFKDPVPIISMEISSKRQQLYIGSASAVAQVRFHHCDMYGSACADCCLARDPYCAWDGISCSRYYPTGTHA
–	–	24	Sema3E^SD-His (human Semaphorin 3E Ala26 to Arg560 of SEQ ID NO: 1 with an N-terminal Histidine tag) (ligand, not shown: small tags and cut ends, Produced by transient transfection of CHO cells; also called His-tagged Sema3E^SD; soluble Sema3E sema domain construct) ADTTHPRLRLSHKELLNLNRTSIFHSPFGFLDLHTMLLDEYQERLFVGGRDLVYSLSLERISDGYKEIHWPSTALKMEECIMKGKDAGECANYVRVLHHYNRTHLLTCGTGAFDPVCAFIRVGYHLEDPLFHLESPRSERGRGRCPFDPSSSFISTLIGSELFAGLYSDYWSRDAAIFRSMGRLAHIRTEHDDERLLKEPKFVGSYMIPDNEDRDDNKVYFFFTEKALEAENNAHAIYTRVGRLCVNDVGGQRILVNKWSTFLKARLVCSVPGMNGIDTYFDELEDVFLLPTRDHKNPVIFGLFNTTSNIFRGHAICVYHMSSIRAAFNGPYAHKEGPEYHWSVYEGKVPYPRPGSCASKVNGGRYGTTKDYPDDAIRFARSHPLMYQAIKPAHKKPILVKTDGKYNLKQIAVDRVEAEDGQYDVLFIGTDNGIVLKVITIYNQEMESMEEVILEELQIFKDPVPIISMEISSKRQQLYIGSASAVAQVRFHHCDMYGSACADCCLARDPYCAWDGISCSRYYPTGTHAKRRFRR
